Source: patent US20150065420A1 (EXTEND BIOSCIENCES, published 2015)

Molecular target: GHS-R (ghrelin receptor) expressed on CHO-K1 cells
Assay: cell-based or functional assay

Chain of GHS-R (ghrelin receptor) expressed on CHO-K1 cells (Q92847 whole entry): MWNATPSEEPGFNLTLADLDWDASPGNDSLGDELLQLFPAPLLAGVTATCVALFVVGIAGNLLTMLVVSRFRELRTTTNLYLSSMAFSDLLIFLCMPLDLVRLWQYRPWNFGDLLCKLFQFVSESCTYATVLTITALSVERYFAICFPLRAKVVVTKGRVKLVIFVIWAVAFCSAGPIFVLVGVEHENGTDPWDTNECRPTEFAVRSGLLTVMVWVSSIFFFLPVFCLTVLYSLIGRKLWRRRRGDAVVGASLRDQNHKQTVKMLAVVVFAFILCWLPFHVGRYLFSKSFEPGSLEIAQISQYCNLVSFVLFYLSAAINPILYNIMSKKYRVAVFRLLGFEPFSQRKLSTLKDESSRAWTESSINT

EC50 of intracellular calcium flux (FLIPR, % activation) in GHS-R-expressing CHO-K1 cells: 85 nM
B1: Vitamin D3-PEG-maleimide carrier-conjugated ghrelin from Example 3 (peptide)
peptide: GSSFLSPEHQKAQQRKESKKPPAKLQPRC
modifications: n-octanoyl on Ser 3; added C-terminal Cys conjugated through its thiol to the Vitamin D3-PEG(2 kDa)-maleimide carrier of Example 1
